Source: US8278109

Key:
[1] = target: JEG-3 derived purified hCG-H (human) (UniProt P01215); experiment: SPR (Biacore); B152 concentration (100 micrograms/ml) giving 223 RU on hCG-H compared with SMA 3E8 and SMA 4D8
[2] = target: JEG-3 derived purified hCG-H (human) (UniProt P01215); experiment: SPR (Biacore); 7 injections of B152 at 20-100 micrograms/ml over JEG-3 hCG-H; lower end
[3] = target: JEG-3 derived purified hCG-H (human) (UniProt P01215); experiment: SPR (Biacore); 7 injections of B152 at 20-100 micrograms/ml over JEG-3 hCG-H; at 100 micrograms/ml

Chain of UniProt P01215 (P01215 25-116, chain 1 of 2, other chains not shown): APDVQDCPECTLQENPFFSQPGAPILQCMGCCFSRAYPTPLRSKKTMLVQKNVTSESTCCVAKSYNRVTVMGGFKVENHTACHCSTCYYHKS

- fold antibody concentration needed for the response, against SMA 3E8 and SMA 4D8 [1]: 50 to 100 fold
- response [2]: 60 RU
- response [3]: 223 RU
Substance: B152 (antibody)
